Key:
p62 = target: T1, p62 (Homo sapiens, UniProt Q13501); experiment: Interaction of β-arrestin2 variants with p62 (flag/p62 PLA); type: cell-based; details: Hela-V5-tau cells
T1 construct: endogenous in cells; host or cells: Hela-V5-tau cells
Source text: FIGS. 12A to 12E show β-arrestin2 interacts with p62, and β-arrestin2 oligomerization inhibits p62 self-interaction. FIG. 12A contains representative confocal images of mCherry and EGFP in Hela-V5-tau cells transfected with mCherry-GFP-p62 together with control vector, β-arrestin2-flag, or β-arrestin2 ΔIP6N-flag (Scale bar=10 μm). […] The box and whisker plots show all data points, and the box plots show all data points, the median and IQR, and the minimal and maximal values. FIG. 12C contains representative immunoblots of indicated proteins from Hela-V5-tau cells transfected GFP or GFP-β-arrestin2 with/without HA-p62. Note that β-arrestin2 is present in HA immune complexes only in the presence of HA-p62, whereas β-arrestin2 is not detected in control IgG beads. […] Lysates were subjected to IP for HA. […] FIG. 12F show quantification of flag/p62 PLA puncta/cell (N=4 independent experiments, #P<0.0001).
Given the effects on p62 autophagy flux, whether β-arrestin2 physically interacts with p62 was tested. […] Given that β-arrestin2 oligomeric mutants, ΔIP6C and ΔIP6N, reduced tau aggregates by slowing tau turnover, next tested was whether β-arrestin2 ΔIP6C and ΔIP6N mutants affect p62 self-association by a proximity ligation assays (PLA) as well as co-IP. […]

GFP-p62 puncta = GFP-p62 puncta in Hela-V5-tau cells with/without bafilomycin A; type: cell-based; details: steady-state
Protocol: (§1) Data are shown as box plots or mean±SEM.
(§2) Given the effects on p62 autophagy flux, whether β-arrestin2 physically interacts with p62 was tested. […] Given that β-arrestin2 oligomeric mutants, ΔIP6C and ΔIP6N, reduced tau aggregates by slowing tau turnover, next tested was whether β-arrestin2 ΔIP6C and ΔIP6N mutants affect p62 self-association by a proximity ligation assays (PLA) as well as co-IP. […] Recent studies have shown that purified recombinant p62 spontaneously forms globular oligomers (Zaffagnini G, et al. (2018) EMBO J 37(5)). To test whether β-arrestin2 can directly affect p62 oligomerization in vitro, purified recombinant p62, β-arrestin2, and p62 mixed with β-arrestin2 with atomic force microscopy were visualized. Recombinant p62 spontaneously formed visible globular particles between 5-100 nm in diameter (FIG. 5K), whereas only very few small β-arrestin2 particles were visible under identical conditions (FIG. 5K). […] Next tested was whether β-arrestin2 oligomerization is required for bafilomycin A-induced p62 puncta formation. As expected, GFP-p62 puncta were increased upon bafilomycin A treatment in control vector transfected cells (FIGS. 5M,5N).

β-arrestin2 oligomers = β-arrestin2 oligomers (Rattus norvegicus, UniProt P29067); details: BRET and co-immunoprecipitation; cited from earlier work
HA-p62/GFP-p62 complex = target: T2, HA-p62/GFP-p62 complex (Homo sapiens, UniProt Q13501); experiment: PLA of HA-p62/GFP-p62 complex (p62 self-interaction); type: cell-based; details: Hela-V5-tau cells
T2 construct: #38277; host or cells: Hela-V5-tau cells
Protocol: as §1, §2

[1] = system: tau turnover in Hela-V5-tau cells; experiment: Cycloheximide chase of tau turnover in Hela-V5-tau cells; type: cell-based; details: cycloheximide 100 μg/ml
Source text: (§3) FIGS. 4A to 4E show β-arrestin2 oligomerization is required for suppressing tau turnover. […] Data are shown as box plots or mean±SEM.
When DIV 18 tau P301S cortical primary neurons were transduced with either β-arrestin2 ΔIP6C or ΔIP6N lentivirus, an approximately 50% reduction in tau compared to control was evident (FIGS. 4A,4B), which represents a key finding relevant to both mechanism of action and potential therapeutic strategies. […] Also investigated was whether β-arrestin2 oligomerization is required for slowing tau turnover by disrupting oligomerization using these mutants in several models. […] To determine whether β-arrestin2 oligomerization status alters tau aggregation itself, filter-trap assays were performed from Hela-V5-tau cells transfected with β-arrestin2 variants, in which tau aggregates from detergent-soluble and-insoluble lysates were captured by cellulose acetate membranes and assessed by immunoblotting.

[2] = target: T3, β-arrestin2-flag and β-arrestin2-myc interaction (Rattus norvegicus, UniProt P29067); experiment: PLA of β-arrestin2-flag and β-arrestin2-myc interaction in presence of mutants; type: cell-based; details: Hela-V5-tau cells
T3 construct: expressed in transfected cells; host or cells: Hela V5-tau cells
Protocol: The assay was performed using commercially available reagents (Duolink, Sigma-Aldrich, St Louis, MO), with transfection of Hela V5-tau cells with WT β-arrestin2-flag and β-arrestin2-myc, without and with the mutant β-arrestin2 ΔIP6C or β-arrestin2 ΔIP6N constructs. Cells were fixed with 4% paraformaldehyde for 15 min at room temperature and washed with 0.2% triton in TBS. After washing, cells were blocked with 0.2% Triton in 3% Normal goat serum for 1 hour at room temperature. After applying primary antibodies overnight at 4° C., cells were washed and incubated with the PLA probes at 37° C. (1 h), washed with buffer A, incubated with ligation solution at 37° C. (30 min), washed with washing buffer A, incubated with amplification solution at 37° C. […]
(§4) When DIV 18 tau P301S cortical primary neurons were transduced with either β-arrestin2 ΔIP6C or ΔIP6N lentivirus, an approximately 50% reduction in tau compared to control was evident (FIGS. 4A,4B), which represents a key finding relevant to both mechanism of action and potential therapeutic strategies. […] To determine whether β-arrestin2 oligomerization status alters tau aggregation itself, filter-trap assays were performed from Hela-V5-tau cells transfected with β-arrestin2 variants, in which tau aggregates from detergent-soluble and-insoluble lysates were captured by cellulose acetate membranes and assessed by immunoblotting.

p62 autophagy flux = details: primary neurons, rAAV9 mCherry-EGFP-p62
Source text: To directly test this hypothesis, the mCherry-EGFP-p62 autophagy flux reporter was used. This reporter takes advantage of the sensitivity of GFP to low pH (which quenches the signal) and the insensitivity of mCherry to low pH. Therefore, colocalized red and green puncta are indicative of non-lysosomal p62 at steady-state.

[3] = system: tau in tau P301S cortical primary neurons; experiment: Tau immunoblot of DIV18 tau P301S cortical primary neurons transduced with β-arrestin2 mutant lentivirus; type: cell-based, mice; details: DIV 18 tau P301S cortical primary neurons
Protocol: as §3
Primary mouse hippocampal and cortical neuronal cultures were previously described (Woo J A, et al. (2019) Commun Biol 2:112; Woo J A, et al. (2017) Hum Mol Genet 26(20):3973-3988; Woo J A, et al. (2015) Cell Death Differ 22(6):1069-1070). Briefly, primary neurons were prepared from P0 mice. Both hippocampus and cortex were dissected separately in HBSS and digested with trypsin. Neurons were plated on glass coverslips coated with poly-D-lysine (Sigma-Aldrich, St Louis, MO, USA) and maintained in neurobasal medium with glutamax (Invitrogen, Carlsbad, CA, USA) and B27 supplement (Invitrogen, Carlsbad, CA, USA). […]
as §4

T3 sequence (P29067 whole entry): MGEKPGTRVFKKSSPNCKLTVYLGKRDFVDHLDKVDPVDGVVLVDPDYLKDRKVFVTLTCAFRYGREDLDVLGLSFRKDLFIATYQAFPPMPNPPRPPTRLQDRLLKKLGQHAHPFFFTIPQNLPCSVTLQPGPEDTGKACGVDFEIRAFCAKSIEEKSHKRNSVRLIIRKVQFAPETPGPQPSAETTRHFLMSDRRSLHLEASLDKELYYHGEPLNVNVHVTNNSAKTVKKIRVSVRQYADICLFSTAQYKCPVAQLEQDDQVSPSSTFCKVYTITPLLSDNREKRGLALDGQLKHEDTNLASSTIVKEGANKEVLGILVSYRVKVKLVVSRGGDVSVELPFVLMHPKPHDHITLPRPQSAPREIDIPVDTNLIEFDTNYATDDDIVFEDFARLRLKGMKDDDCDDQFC
Chain of β-arrestin2 oligomers (P29067 whole entry): as above

B1: β-arrestin2 ΔIP6N: β-arrestin2 N-terminal domain mutant (K158A, K161A, and R162A), incapable of forming oligomers; dominant negative (protein, UniProt P32121 1-409, looked up, variant K158A K161A R162A)
Beta-arrestin-2: MGEKPGTRVFKKSSPNCKLTVYLGKRDFVDHLDKVDPVDGVVLVDPDYLKDRKVFVTLTCAFRYGREDLDVLGLSFRKDLFIATYQAFPPVPNPPRPPTRLQDRLLRKLGQHAHPFFFTIPQNLPCSVTLQPGPEDTGKACGVDFEIRAFCAKSLEEASHAANSVRLVIRKVQFAPEKPGPQPSAETTRHFLMSDRSLHLEASLDKELYYHGEPLNVNVHVTNNSTKTVKKIKVSVRQYADICLFSTAQYKCPVAQLEQDDQVSPSSTFCKVYTITPLLSDNREKRGLALDGKLKHEDTNLASSTIVKEGANKEVLGILVSYRVKVKLVVSRGGDVSVELPFVLMHPKPHDHIPLPRPQSAAPETDVPVDTNLIEFDTNYATDDDIVFEDFARLRLKGMKDDDYDDQLC
modifications: GFP or YFP tag
notes: dominant negative
p62
  interaction with p62 compared to β-arrestin2: much less interaction with p62
GFP-p62 puncta
  GFP-p62 puncta: increased GFP-p62 puncta at steady-state
β-arrestin2 oligomers
  oligomer formation: incapable of forming oligomers
HA-p62/GFP-p62 complex
  HA-p62/GFP-p62 PLA puncta (p62 self-interaction): neither β-arrestin2 ΔIP6C nor β-arrestin2 ΔIP6N reduced HA-p62/GFP-p62 PLA puncta
[1]
  tau turnover in cycloheximide chase: enhancement of tau turnover
[2]
  β-arrestin2-flag and β-arrestin2-myc interaction (PLA): significantly reduced
p62 autophagy flux
  ratio of mCherry only to total puncta: significantly increased
[3]
  reduction in tau compared to control: approximately 50%

— US11896644B2, “Inhibition of beta-arrestin oligomerization in tauopathy” (UNIVERSITY OF SOUTH FLORIDA, priority 2020, dated 2024)
